Data from US20210261648A1 (published 2021).
Changes are numbered by the printed parent chain.

T1: FcγRIIa type H extracellular domain with C-terminal His tag (human, UniProt P12318 34-217)
T1 construct: extracellular domain; also called FcgRIIaH; FcγRIIa H
T1 sequence (looked up): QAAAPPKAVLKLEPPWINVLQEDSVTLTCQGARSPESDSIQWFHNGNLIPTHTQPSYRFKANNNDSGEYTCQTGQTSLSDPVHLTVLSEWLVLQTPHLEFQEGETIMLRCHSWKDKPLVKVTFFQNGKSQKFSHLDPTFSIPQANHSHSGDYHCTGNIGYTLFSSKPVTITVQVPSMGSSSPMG

T2: FcγRIIb extracellular domain with C-terminal His tag (human, UniProt P31994 43-217)
T2 construct: extracellular domain; also called FcgRIIb
T2 sequence (looked up): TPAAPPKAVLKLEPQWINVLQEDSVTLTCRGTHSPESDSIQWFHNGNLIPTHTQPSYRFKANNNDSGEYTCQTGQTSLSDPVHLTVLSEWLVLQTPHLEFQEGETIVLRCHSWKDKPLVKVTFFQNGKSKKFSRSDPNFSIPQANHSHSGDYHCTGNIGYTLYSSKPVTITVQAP

B1: IL6R-BP180/IL6R-L (antibody, human IgG1, kappa)
heavy: QVQLQESGPGLVKPSETLSLTCAVSGHSISHDHAWSWVRQPPGEGLEWIGFISYSGITNYNPSLQGRVTISRDNSKNTLYLQMNSLRAEDTAVYYCARSLARTTAMDYWGEGTLVTVSSASTKGPSVFPLAPSSKSTSGGTAALGCLVKDYFPEPVTVSWNSGALTSGVHTFPAVLQSSGLYSLSSVVTVPSSSLGTQTYICNVNHKPSNTKVDKKVEPKSCDKTHTCPPCPAPELLGDDSVFLFPPKPKDTLMISRTPEVTCVVVDVSHEDGEVKFNWYVDGVEVHNAKTKPREEQYNSTYRVVSVLTVLHQDWLNGKEYKCKVSNKALPKPIEKTISKAKGQPREPQVYTLPPSRDELTKNQVSLTCLVKGFYPSDIAVEWESNGQPENNYKTTPPVLDSDGSFFLYSKLTVDKSRWQQGNVFSCSVMHEALHNHYTQESLSLSP
light: not shown
B2: IL6R-BP147/IL6R-L (antibody, human IgG1, kappa)
heavy: B1 heavy with L236Y, G273P, K328A
light: not shown
B3: IL6R-BP201/IL6R-L (antibody, human IgG1, kappa)
heavy: B1 heavy with E235D, K332R
light: not shown
B4: IL6R-BP088/IL6R-L (antibody, human IgG1, kappa)
heavy: B1 heavy with G273P, K328A
light: not shown
B5: IL6R-BP187/IL6R-L (antibody, human IgG1, kappa)
heavy: B1 heavy with L236Y, D239G, K328A
light: not shown
B6: IL6R-BP214/IL6R-L (antibody, human IgG1, kappa)
heavy: B1 heavy with E235D, L236Y, G273P, Y298D, K328D
light: not shown
B7: IL6R-BP210/IL6R-L (antibody, human IgG1, kappa)
heavy: B1 heavy with H270D, K332R
light: not shown
B8: IL6R-BP179/IL6R-L (antibody, human IgG1, kappa)
heavy: B1 heavy with K328A
light: not shown
B9: IL6R-BP197/IL6R-L (antibody, human IgG1, kappa)
heavy: B1 heavy with E235D, L236Y, H270D, Y298D, K328D
light: not shown
B10: IL6R-BP194/IL6R-L (antibody, human IgG1, kappa)
heavy: B1 heavy with E235D, L236Y, H270D, K328A
light: not shown
B11: IL6R-BP183/IL6R-L (antibody, human IgG1, kappa)
heavy: B1 heavy with E235D, L236Y, D239G, K328A
light: not shown
B12: IL6R-BP196/IL6R-L (antibody, human IgG1, kappa)
heavy: B1 heavy with L236Y, D239G, H270D, K328A
light: not shown
B13: IL6R-BP177/IL6R-L (antibody, human IgG1, kappa)
heavy: B1 heavy with E235D, L236Y, K328D
light: not shown
B14: IL6R-BP189/IL6R-L (antibody, human IgG1, kappa)
heavy: B1 heavy with H270D, K328A
light: not shown
B15: IL6R-BP202/IL6R-L (antibody, human IgG1, kappa)
heavy: B1 heavy with K328A, K332R
light: not shown
B16: IL6R-BP198/IL6R-L (antibody, human IgG1, kappa)
heavy: B1 heavy with E235D, L236Y, D239G, H270D, K328A
light: not shown
B17: IL6R-BP212/IL6R-L (antibody, human IgG1, kappa)
heavy: B1 heavy with E235D, D239G, H270D, Y298D, K332R
light: not shown
B18: IL6R-BP150/IL6R-L (antibody, human IgG1, kappa)
heavy: B1 heavy with L236Y, G273P, K328A, K332R
light: not shown
B19: IL6R-BP089/IL6R-L (antibody, human IgG1, kappa)
heavy: B1 heavy with L236Y, D239G, G273P, K328A
light: not shown
B20: IL6R-BP178/IL6R-L (antibody, human IgG1, kappa)
heavy: B1 heavy with E235D
light: not shown

The binders below were run against T3, FcγRIa extracellular domain with C-terminal His tag (human, UniProt P12314 16-292) (assay: SPR, captured antibody, FcgR analyte).
T3 construct: also called FcgRIa
T3 sequence (P12314 16-292): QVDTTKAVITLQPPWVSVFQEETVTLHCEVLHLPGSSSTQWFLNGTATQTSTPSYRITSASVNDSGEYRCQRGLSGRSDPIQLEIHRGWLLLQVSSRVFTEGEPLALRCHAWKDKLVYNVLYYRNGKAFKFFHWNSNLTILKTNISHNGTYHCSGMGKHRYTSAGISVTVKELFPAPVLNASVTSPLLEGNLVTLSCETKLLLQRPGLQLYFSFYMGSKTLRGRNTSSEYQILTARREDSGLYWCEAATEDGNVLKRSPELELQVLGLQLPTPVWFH
Protocol: (§1) Relative binding activities were calculated for the results of analyzing interactions with the respective FcγRs according to the following method.

relative binding activity | Binder
29 relative (IL6R-BF648/IL6R-L = 100) | B1
24 relative (IL6R-BF648/IL6R-L = 100) | B2
57 relative (IL6R-BF648/IL6R-L = 100) | B3
25 relative (IL6R-BF648/IL6R-L = 100) | B4
68 relative (IL6R-BF648/IL6R-L = 100) | B5
36 relative (IL6R-BF648/IL6R-L = 100) | B6
57 relative (IL6R-BF648/IL6R-L = 100) | B7
39 relative (IL6R-BF648/IL6R-L = 100) | B8
71 relative (IL6R-BF648/IL6R-L = 100) | B9
69 relative (IL6R-BF648/IL6R-L = 100) | B10
83 relative (IL6R-BF648/IL6R-L = 100) | B11
89 relative (IL6R-BF648/IL6R-L = 100) | B12
57 relative (IL6R-BF648/IL6R-L = 100) | B13
56 relative (IL6R-BF648/IL6R-L = 100) | B14
43 relative (IL6R-BF648/IL6R-L = 100) | B15
104 relative (IL6R-BF648/IL6R-L = 100) | B16
117 relative (IL6R-BF648/IL6R-L = 100) | B17
30 relative (IL6R-BF648/IL6R-L = 100) | B18
43 relative (IL6R-BF648/IL6R-L = 100) | B19

These binders were tested against T1, FcγRIIa type H extracellular domain … (assay: SPR, captured antibody, FcgR analyte).
Protocol: as §1

relative binding activity | Binder
203 relative (IL6R-BF648/IL6R-L = 100) | B1
582 relative (IL6R-BF648/IL6R-L = 100) | B2
359 relative (IL6R-BF648/IL6R-L = 100) | B3
166 relative (IL6R-BF648/IL6R-L = 100) | B4
205 relative (IL6R-BF648/IL6R-L = 100) | B5
285 relative (IL6R-BF648/IL6R-L = 100) | B6
279 relative (IL6R-BF648/IL6R-L = 100) | B7
226 relative (IL6R-BF648/IL6R-L = 100) | B8
294 relative (IL6R-BF648/IL6R-L = 100) | B9
395 relative (IL6R-BF648/IL6R-L = 100) | B10
191 relative (IL6R-BF648/IL6R-L = 100) | B11
195 relative (IL6R-BF648/IL6R-L = 100) | B12
409 relative (IL6R-BF648/IL6R-L = 100) | B13
183 relative (IL6R-BF648/IL6R-L = 100) | B14
285 relative (IL6R-BF648/IL6R-L = 100) | B15
188 relative (IL6R-BF648/IL6R-L = 100) | B16
135 relative (IL6R-BF648/IL6R-L = 100) | B17
770 relative (IL6R-BF648/IL6R-L = 100) | B18
186 relative (IL6R-BF648/IL6R-L = 100) | B19
259 relative (IL6R-BF648/IL6R-L = 100) | B20

Each binder was assayed against T2, FcγRIIb extracellular domain with … (assay: SPR, captured antibody, FcgR analyte).
Protocol: as §1

relative binding activity | Binder
179 relative (IL6R-BF648/IL6R-L = 100) | B1
177 relative (IL6R-BF648/IL6R-L = 100) | B2
186 relative (IL6R-BF648/IL6R-L = 100) | B3
161 relative (IL6R-BF648/IL6R-L = 100) | B4
157 relative (IL6R-BF648/IL6R-L = 100) | B5
174 relative (IL6R-BF648/IL6R-L = 100) | B6
187 relative (IL6R-BF648/IL6R-L = 100) | B7
177 relative (IL6R-BF648/IL6R-L = 100) | B8
179 relative (IL6R-BF648/IL6R-L = 100) | B9
178 relative (IL6R-BF648/IL6R-L = 100) | B10
164 relative (IL6R-BF648/IL6R-L = 100) | B11
157 relative (IL6R-BF648/IL6R-L = 100) | B12
177 relative (IL6R-BF648/IL6R-L = 100) | B13
177 relative (IL6R-BF648/IL6R-L = 100) | B14
185 relative (IL6R-BF648/IL6R-L = 100) | B15
164 relative (IL6R-BF648/IL6R-L = 100) | B16
173 relative (IL6R-BF648/IL6R-L = 100) | B17
183 relative (IL6R-BF648/IL6R-L = 100) | B18
147 relative (IL6R-BF648/IL6R-L = 100) | B19
179 relative (IL6R-BF648/IL6R-L = 100) | B20
